The target of the assay is snx9_human SNX9 (UniProt Q9Y5X1).

1 substance from IntAct's records for PubMed 25107275 can be followed below.

snx9_human SNX9, sequence (Q9Y5X1 whole entry): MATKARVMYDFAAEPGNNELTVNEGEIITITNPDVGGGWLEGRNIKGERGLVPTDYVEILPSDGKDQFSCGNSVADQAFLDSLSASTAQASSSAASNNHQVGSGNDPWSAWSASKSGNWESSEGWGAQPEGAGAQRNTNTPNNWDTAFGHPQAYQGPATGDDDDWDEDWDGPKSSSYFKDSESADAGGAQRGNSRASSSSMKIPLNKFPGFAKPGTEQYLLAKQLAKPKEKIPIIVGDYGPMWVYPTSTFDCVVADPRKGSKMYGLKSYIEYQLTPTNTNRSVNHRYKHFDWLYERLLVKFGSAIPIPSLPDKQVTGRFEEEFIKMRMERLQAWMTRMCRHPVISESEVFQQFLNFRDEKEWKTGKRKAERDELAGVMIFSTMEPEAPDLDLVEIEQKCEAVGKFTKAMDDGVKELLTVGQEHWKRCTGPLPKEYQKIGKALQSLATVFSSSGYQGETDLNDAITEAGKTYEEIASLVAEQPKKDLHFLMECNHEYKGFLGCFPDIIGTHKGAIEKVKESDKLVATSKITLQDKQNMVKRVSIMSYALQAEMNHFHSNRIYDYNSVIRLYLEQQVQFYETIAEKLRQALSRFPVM
Inositol polyphosphate 5-phosphatase OCRL (Homo sapiens), Q01968 P177A;P178A;P181A, sequence (Q01968 whole entry P177A/P178A/P181A): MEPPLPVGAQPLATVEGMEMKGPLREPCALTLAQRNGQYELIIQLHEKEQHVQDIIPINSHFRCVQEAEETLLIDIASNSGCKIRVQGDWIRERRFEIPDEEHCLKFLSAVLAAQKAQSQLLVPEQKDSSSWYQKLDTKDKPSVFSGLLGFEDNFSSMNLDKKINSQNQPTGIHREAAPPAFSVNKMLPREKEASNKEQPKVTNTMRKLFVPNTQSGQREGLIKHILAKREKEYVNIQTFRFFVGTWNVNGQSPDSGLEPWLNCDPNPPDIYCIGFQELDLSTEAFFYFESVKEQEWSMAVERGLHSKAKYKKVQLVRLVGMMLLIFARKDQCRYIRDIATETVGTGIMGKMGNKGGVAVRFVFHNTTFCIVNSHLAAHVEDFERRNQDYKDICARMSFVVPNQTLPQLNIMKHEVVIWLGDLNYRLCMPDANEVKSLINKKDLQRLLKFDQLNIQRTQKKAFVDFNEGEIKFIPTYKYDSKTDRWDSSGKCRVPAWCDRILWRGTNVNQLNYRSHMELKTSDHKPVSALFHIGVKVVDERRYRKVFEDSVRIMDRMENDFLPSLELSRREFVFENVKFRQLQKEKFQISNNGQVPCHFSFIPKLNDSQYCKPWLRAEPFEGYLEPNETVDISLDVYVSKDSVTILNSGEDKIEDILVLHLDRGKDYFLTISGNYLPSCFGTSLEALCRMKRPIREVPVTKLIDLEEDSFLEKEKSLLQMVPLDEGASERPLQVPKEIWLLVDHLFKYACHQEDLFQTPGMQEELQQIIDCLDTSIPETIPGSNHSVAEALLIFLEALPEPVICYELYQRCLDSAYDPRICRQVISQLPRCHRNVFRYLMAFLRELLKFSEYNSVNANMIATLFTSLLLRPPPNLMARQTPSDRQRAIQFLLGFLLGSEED

On to “Inositol polyphosphate 5-phosphatase OCRL (Homo sapiens), Q01968 P177A;P178A;P181A”, for which the “effect of a mutation on the interaction” value is “disrupting interaction”.
